What all share (assay): HPLC steady-state kinetics, amide hydrolysis at lactyl moiety
The target in data set [1] is T1, AmpDh2 (Pseudomonas aeruginosa, UniProt Q9HT86).
T1 sequence (Q9HT86 18-259): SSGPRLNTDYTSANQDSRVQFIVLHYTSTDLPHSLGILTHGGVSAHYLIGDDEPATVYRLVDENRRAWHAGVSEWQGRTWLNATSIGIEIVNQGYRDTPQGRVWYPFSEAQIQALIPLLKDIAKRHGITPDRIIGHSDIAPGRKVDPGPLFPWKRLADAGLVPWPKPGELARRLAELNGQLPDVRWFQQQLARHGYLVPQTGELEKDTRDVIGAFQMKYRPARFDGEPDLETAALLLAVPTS
In kind it is biochemical. The note with it: 100 μM ZnCl2.

Data set [2] addresses T2, AmpDh3 (Pseudomonas aeruginosa, UniProt Q9I5D1).
T2 sequence (Q9I5D1 1-255): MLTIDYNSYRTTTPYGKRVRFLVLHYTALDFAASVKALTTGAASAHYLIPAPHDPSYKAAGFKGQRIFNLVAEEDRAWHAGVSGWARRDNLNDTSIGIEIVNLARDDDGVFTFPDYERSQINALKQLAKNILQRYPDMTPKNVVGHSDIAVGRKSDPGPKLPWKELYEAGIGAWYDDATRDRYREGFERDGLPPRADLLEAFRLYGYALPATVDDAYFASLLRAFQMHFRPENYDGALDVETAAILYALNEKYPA
The data set is classed as biochemical. The note with it: 100 μM ZnCl2.

Data set [3] deals with CC(=O)N[C@H]1[C@@H]2OC[C@@H](O2)[C@@H](O)[C@@H]1O[C@H](C)C(=O)N[C@@H](C)C(=O)N[C@H](CCC(=O)N[C@@H](CCC[C@@H](N)C(=O)O)C(=O)N[C@H](C)C(=O)O)C(=O)O. The data set is classed as biochemical, Pseudomonas aeruginosa. The note with it: 25 °C (Figure 2 reaction).
Substrate in data set [4]: CC(=O)N[C@H]1[C@@H]2OC[C@@H](O2)[C@@H](O)[C@@H]1O[C@H](C)C(=O)N[C@@H](C)C(=O)N[C@H](CCC(=O)N[C@@H](CCC[C@@H](N)C(=O)O)C(=O)N[C@H](C)C(=O)O)C(=O)O
In kind it is biochemical, Pseudomonas aeruginosa. The note with it: 100 μM ZnCl2.

The Km is the substrate concentration at which the rate is half of its maximum. With muramyl tetrapeptide 8 [compound 8], the Michaelis constant (Km) is 1800 ± 300 µM in data set [1] and 1400 ± 200 µM in data set [2].
By kcat is commonly meant the number of substrate molecules converted per active site and unit of time at saturation. What is called kcat/Km is the second-order rate constant that governs catalysis at low substrate concentration. As for AmpD (Pseudomonas aeruginosa PAO1), in data set [3], the Michaelis constant (Km) came out at 1200 ± 300 µM, the kcat was 39.8 ± 3.1 s⁻¹ and the specificity constant (kcat/Km) is 33200 ± 7500 M⁻¹ s⁻¹.

B1: AmpDh3 (Pseudomonas aeruginosa PAO1) (protein)
chain: MLTIDYNSYRTTTPYGKRVRFLVLHYTALDFAASVKALTTGAASAHYLIPAPHDPSYKAAGFKGQRIFNLVAEEDRAWHAGVSGWARRDNLNDTSIGIEIVNLARDDDGVFTFPDYERSQINALKQLAKNILQRYPDMTPKNVVGHSDIAVGRKSDPGPKLPWKELYEAGIGAWYDDATRDRYREGFERDGLPPRADLLEAFRLYGYALPATVDDAYFASLLRAFQMHFRPENYDGALDVETAAILYALNEKYPA
Turning to B1, in data set [4], the Km worked out at 4500 ± 600 µM, the kcat was found to be 70.6 ± 6.6 s⁻¹ and the kcat/Km is 15700 ± 1900 M⁻¹ s⁻¹.

Values taken from publication PMC3735781 (Journal of the American Chemical Society, 2013).
